Reference: the supplement of paper PMC10567573

B1: POMT2 (parent)
chain: VKYNSCADRPFSAPWWFWLSLTGV
B2: WDR88 (parent)
chain: LLTITKAHSNAISNCCFTFSGHFL

Variants of: B1
Test: protein stability index of a GFP-peptide fusion (GPS, HEK-293T) (PSI 1-6); higher = more stable
Settings: c terminus: a fixed tail appended
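Further: lentivirally expressed fusions sorted by FACS into six bins by GFP to DsRed ratio, PSI derived from sequencing read proportions per bin multiplied by bin number.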

Variant	protein stability index
F17V	2.16
F17W	1.33
F17K	2.65
F17T	3.3
P14C	2.27
P14A	2.21
P14R	3.92
P14Y	1.21
P14F	1.35
P14G	2.4
P14V	2.71
T22V	3.31
T22N	1.29
T22I	1.56
T22A	1.62
T22K	2.12
D8I	3.67
D8R	3.03
D8P	3.01
D8S	2.54
D8Y	2.29
D8T	3.21
D8G	2.4
D8L	3
D8W	1.26
N4E	3.12

Variant	protein stability index
N4V	3.46
N4T	3.25
L19E	1.65
L19F	2.95
L19T	1.64
L19I	1.76
L19N	2.79
L21K	1.12
L21N	2.88
L21A	3.62
L21P	2.68
S5D	4.19
S5P	2.39
S5A	4.07
S20C	2.22
S20I	2.08
S20L	1.47
S20H	2.9
S20F	1.04
S20Y	2.25
S20M	3.17
C6T	1.92
C6W	1
C6L	2.11
C6S	2.14
C6I	2.36

Variant	protein stability index
C6N	1.02
C6G	1.73
C6D	2.84
F11S	1
F11G	2.84
R9F	3.16
R9N	3.39
R9G	3.51
R9A	2.8
R9L	2
R9I	3.57
R9W	3.34
V1R	1.98
S12I	3.2
S12F	2.65
S12A	3.27
V24R	1.87
V24E	1
V24A	2.85
V24I	2.98
V24Y	2.1
V24N	1.81
V24M	2.61
V24L	5.16
V24T	1.5
G23W	1.21

Variant	protein stability index
G23F	2.65
G23I	2.22
G23C	1.24
G23E	5.35
G23T	2.04
G23A	1.77
G23V	2.98
G23S	1.47
G23N	1.69
G23M	1.55
G23Q	4.6
W18S	3.44
W18G	3.3
W18T	3.52
W18C	2.54
W18V	2.56
W18Y	2.04
W18A	2.22
Y3P	2.55
Y3Q	1.41
Y3K	2.11
Y3D	2.19
W16Q	1.78
W16I	3.2
W16D	3.79
W16V	2.01

Variant	protein stability index
W16P	2.08
W16T	3.23
W16L	1.8
A7Y	1.39
W15E	3.49
W15H	2.54
W15K	3.58
A13E	2.18
A13S	2.06
A13R	1
A13H	1.18
A13G	2.11
P10K	4.18
P10E	1.63
P10L	2.5
P10A	2.24
P10M	1.94
K2R	2.2
K2N	2.4
K2T	1.61
K2Y	3.34
K2F	2.75

Variants of: B2
Test: as above
Settings: c terminus: a fixed tail appended

Variant	protein stability index
A11C	1.97
A11H	2.82
A11D	2.27
A11T	3.57
A11V	2.69
A11M	2.82
A11N	3.27
A11E	3.24
A11K	2.66
A11L	3.15
A11G	3.47
A11P	3.08
A11S	3.22
A11Q	3.19
A11W	2.7
A11F	2.93
A7T	2.58
A7C	2.75
A7N	2.1
A7M	2.8
A7K	2.4
A7Q	3.22
A7D	1.86
A7I	2.95

Variant	protein stability index
A7P	2.04
A7F	2.86
A7G	3.76
A7L	3.04
A7S	2.54
A7R	3.62
A7H	3.42
A7E	3.31
A7W	4.07
A7V	2.76
A7Y	3.09
I4D	3.07
I4V	3.9
I4T	2.8
I4S	2.5
I4A	2.47
I4R	2.4
I4L	2.9
I4F	3.68
I4E	1.99
I4C	2.19
I4G	1.9
I4N	2.89
I4P	2.15

Variant	protein stability index
I4Y	2.38
I4H	2.36
I4M	3.12
I4K	2.5
I4Q	1.8
T3P	2.97
T3F	3.14
T3I	2.74
T3H	2.57
T3A	2.93
T3G	1.94
T3Q	3.3
T3C	2.84
T3Y	2.92
T3V	3.68
T3W	2.29
T3E	2.47
T3M	3.13
T3D	2.61
T3S	3.22
T3L	2.37
T3N	3
I12M	3.38
I12Q	2.57

Variant	protein stability index
I12N	2.49
I12G	2.96
I12C	3.49
I12H	3.51
I12R	2.74
I12E	1.77
I12D	1.96
I12K	2.4
I12F	3.3
I12L	3.56
I12P	2.55
I12A	2.3
T5E	2.58
T5S	3.33
T5G	2.73
T5C	2.54
T5L	2.03
T5H	2.9
T5M	3.85
T5F	4.83
T5V	3.03
T5Y	3.34
T5P	2.98
T5A	3.41

Variant	protein stability index
T5N	1.67
T5Q	1.69
T5D	1.65
T5I	2.02
T5K	2.37
T5R	2.72
H8P	2.35
H8V	2.58
H8N	2.03
H8Y	4.38
H8G	3.56
H8F	2.59
H8I	2.57
H8L	3.6
H8S	2.6
H8C	2.53
H8W	2.17
H8K	3.13
H8T	2.38
H8A	3.08
H8D	3.88
H8R	3.29
H8Q	2.24
H8E	2.27

Variant	protein stability index
L2P	2.12
L2N	2.82
L2H	2.28
L2W	3.22
L2K	2.85
L2G	2.01
L2R	2.41
L2Q	2.75
L2Y	2.1
L2E	1.57
L2F	2.44
L2T	2.71
L2S	2.4
L2I	3.28
L2A	3.15
L2V	2.33
L2M	2.53
L2C	2.18
L2D	1.4
S9G	2.8
S9W	3.1
S9A	3.55
S9H	2.45
S9Y	3.69

Variant	protein stability index
S9K	2.83
S9C	1.89
S9T	2.15
S9F	4.2
S9N	3.57
S9Q	3.42
S9M	2.31
S9L	2.95
S9P	2.39
S9V	4.49
S9D	3.12
S9R	1.77
S9I	2.46
L1M	1.95
L1G	1.49
L1Y	4.04
L1K	1.85
L1E	1.76
L1C	2.81
L1P	2.81
L1S	1.76
L1N	2.47
L1I	4.01
L1T	3.09

Variant	protein stability index
L1H	2.46
L1F	2.52
L1D	1.67
L1R	2.75
L1Q	1.59
L1A	3.61
L1W	3.03
L1V	2.93
N10Q	3.31
N10K	2.12
N10T	3.75
N10C	4.06
N10F	3.94
N10I	3.1
N10V	2.49
N10A	2.64
N10P	2.89
N10H	2.75
N10R	2.99
N10D	3.19
N10S	3.46
K6S	2.44
K6H	3.03
K6W	3.12

Variant	protein stability index
K6V	2.84
K6F	3.35
K6I	2.88
K6P	3.02
K6C	2.9
K6T	2.78
K6M	2.66
K6E	2.67
K6R	2.72
K6Y	1.83
K6Q	2.29
K6G	2.44
K6A	2.8
K6N	3.18
K6D	1.83
K6L	3.35
